Assay results reported in patent publication US20240010750A1 (Bayer, published 2024).
Positions count from the first letter of the chain named. Where two headings read alike, the source gives them in different places.

B1: TPP-14298 hIgG1 (antibody, V domains shown)
VH: EVQLLESGGGLVQPGGSLRLSCAASGFTFDDYAMSWVRQAPGKGLEWVSAIGTGGGTYYADSVKGRFTISRDNSKNTLYLQMNSLRAEDTAVYYCASEYYDSSGYYHLDYWGQGTLVTVSS
VL: QSVLTQPPSASGTPGQRVTISCTGSSSNIGATYDVHWYQQLPGTAPKLLIYSNNQRPSGVPDRFSGSKSGTSASLAISGLRSEDEADYYCAAWDWSLSGWVFGGGTKLTVLG
B2: TPP-14303 hIgG1 (antibody, V domains shown)
VH: B1 VH with S97R, Y99D
VL: B1 VL

Key:
[1] = molecular target: human Plasmin (human, UniProt P00747 97-580; P00747 581-810, limits assumed); test: cell-based or functional assay
Chain of human Plasmin (P00747 97-580 limits assumed, chain 1 of 2): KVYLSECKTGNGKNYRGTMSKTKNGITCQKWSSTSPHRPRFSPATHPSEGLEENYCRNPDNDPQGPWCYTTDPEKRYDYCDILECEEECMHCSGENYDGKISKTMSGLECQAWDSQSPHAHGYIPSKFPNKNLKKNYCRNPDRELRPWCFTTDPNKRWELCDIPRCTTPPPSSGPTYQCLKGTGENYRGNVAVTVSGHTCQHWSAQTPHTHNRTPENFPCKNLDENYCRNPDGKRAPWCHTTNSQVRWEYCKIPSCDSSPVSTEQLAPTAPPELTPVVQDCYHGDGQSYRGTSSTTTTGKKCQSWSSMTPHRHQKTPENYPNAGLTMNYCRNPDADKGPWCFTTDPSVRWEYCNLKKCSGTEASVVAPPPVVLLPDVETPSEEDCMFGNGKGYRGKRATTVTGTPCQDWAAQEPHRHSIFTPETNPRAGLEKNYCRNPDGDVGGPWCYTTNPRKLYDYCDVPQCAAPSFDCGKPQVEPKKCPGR
Chain of human Plasmin (P00747 581-810 limits assumed, chain 2 of 2): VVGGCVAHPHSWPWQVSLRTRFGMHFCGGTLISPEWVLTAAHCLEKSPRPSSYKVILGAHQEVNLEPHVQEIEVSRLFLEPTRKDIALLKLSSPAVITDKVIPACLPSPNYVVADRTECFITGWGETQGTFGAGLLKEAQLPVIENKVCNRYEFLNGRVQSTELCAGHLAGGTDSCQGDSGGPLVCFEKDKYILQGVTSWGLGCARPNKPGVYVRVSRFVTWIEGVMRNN

[2] = molecular target: T1, human alpha2-Antiplasmin (human, UniProt P08697 40-491); test: ELISA, coated antigen, 1st exp.; 1st exp.
T1 construct: Bought (antibodies online, ABIN2544306); also called human A2AP; a2AP
T1 sequence: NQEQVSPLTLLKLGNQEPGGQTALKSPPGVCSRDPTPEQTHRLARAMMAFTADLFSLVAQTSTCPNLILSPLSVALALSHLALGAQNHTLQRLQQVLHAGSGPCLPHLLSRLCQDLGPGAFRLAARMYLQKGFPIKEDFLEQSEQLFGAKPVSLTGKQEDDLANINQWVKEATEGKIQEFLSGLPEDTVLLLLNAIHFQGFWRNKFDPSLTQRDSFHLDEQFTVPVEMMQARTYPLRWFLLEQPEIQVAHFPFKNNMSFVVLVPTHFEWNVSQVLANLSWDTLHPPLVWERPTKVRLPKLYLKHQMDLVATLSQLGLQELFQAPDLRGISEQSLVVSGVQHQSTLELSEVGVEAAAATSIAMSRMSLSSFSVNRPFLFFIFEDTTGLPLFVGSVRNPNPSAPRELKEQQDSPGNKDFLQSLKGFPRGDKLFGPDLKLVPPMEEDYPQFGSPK
Experimental: (§1) A standard ELISA format was used for analyzing the binding affinity of Fabs of this invention to human and rabbit alpha-2-Antiplasmin, respectively. Antigens were coated to black 384 well Maxisorp microtiter plates (Nunc; catalogue number 460518), diluted to a concentration of 1 μg/ml in 1× Coating Buffer (Candor Bioscience; catalogue number 121125). Plates were incubated overnight at 4° C. After overnight incubation, plates were washed 2× with 50 μl/well using PBS+0.05% Tween 20. Following this, 50 μl/well of blocking buffer (Smart Block; Candor Bioscience; catalogue number 113500) was added and the plates were incubated for 1 hour at room temperature. Afterwards, plates were washed for 3× using […] PBS+0.05% Tween 20 buffer. Fabs of this invention were added at different concentrations in a final volume of 30 μl/well. Plates were incubated for 1 hour at room temperature. Following this incubation step, plates were washed for 3× using 50 μl/well of a PBS+0.05% Tween 20 buffer. For the detection of bound Fabs and full-length antibodies, the anti-Human Lambda Light Chains (Bound and Free)—Peroxidase antibody (Sigma; catalogue number A5175) was diluted by the factor of 1:10.000 in 10% Blocking Buffer. […]
(§2) For measurement, the Infinite f500 reader (Tecan) was used. Measurement mode: Fluorescence; Top reading; Ex 535 nm; Em 590 nm. […]

[3] = molecular target: T1, human alpha2-Antiplasmin; test: cell-based or functional assay
[4] = molecular target: T1, human alpha2-Antiplasmin; test: ELISA, coated antigen, 3rd exp.
Summary of the method: (§3)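 Human alpha2-antiplasmin coated at 1 μg/ml overnight at 4° C, blocked, then incubated 1 h at room temperature with Fabs at different concentrations. Bound Fab detected with peroxidase anti-human lambda light chain antibody and Amplex red/H2O2, fluorescence Ex 535/Em 590 nm; dose-response in quadruplicate, independent experiments.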

[5] = molecular target: T1, human alpha2-Antiplasmin; test: ELISA, coated antigen, 2nd exp.
Summary of the method: as §3

[6] = molecular target: T1, human alpha2-Antiplasmin; test: cell-based or functional assay; remark: listed apart in the source
[7] = molecular target: T1, human alpha2-Antiplasmin; test: ELISA, coated antigen, 1st exp.
Summary of the method: as §3

[8] = molecular target: T1, human alpha2-Antiplasmin; test: cell-based or functional assay; remark: listed apart in the source
[9] = molecular target: T1, human alpha2-Antiplasmin; test: ELISA, coated antigen, 3rd exp.; 3rd exp.
Experimental: as §1, §2

| Binder | IC50 [M], inhibition of plasmin proteolytic activity [1] [M] | EC50 [2] [nM] | EC50 (read off the curve); function blocking assay (Example 4), RFU of plasmin substrate cleavage [3] [nM] | EC50 [4] [nM] | EC50 [5] [nM] | function blocking activity [IC50 M], 1st exp. [6] [nM] | function blocking activity [IC50 M], 2nd exp. [6] [nM] | function blocking activity [IC50 M], 3rd exp. [6] [nM] | EC50 [7] [nM] | EC50 (read off the curve); function blocking assay (Example 4), RFU of plasmin substrate cleavage [8] [nM] | EC50 [9] [nM] |
| --- | --- | --- | --- | --- | --- | --- | --- | --- | --- | --- | --- |
| B1 | > 5e-06 | 5.7 | ~30 | 58 | 62 | 31 | 37 | 40 |  |  |  |
| B2 | > 1e-05 |  |  |  | 29 | 85 | 89 | 94 | 24 | ~80 | 27 |
